Data set [1] addresses ParD antitoxin (ParD1) of Caulobacter crescentus (Caulobacter crescentus). Put plainly: SEC.
The data set “crystal structure” concerns the molecule itself. Put plainly: crystal structure.

Broadly, the stoichiometry N is a count of units in the complex or per binding partner. “ParD antitoxin (ParD1) of Caulobacter crescentus (natural protein)” registered a stoichiometry N in data set [1] of 2.

B1: His6-ParE toxin (ParE1) of Caulobacter crescentus (natural protein, UniProt Q9A9T8 1-96, looked up)
chain: MKPYRLSRRAKADLDDIWTYSEQRWGVEQAADYARELQATIEMIAEHPGMGQPDENLRAGYRRCASGSHVVFYRVGVRVEIIRVLHQSMNARAHLG
modifications: selenomethionine-labeled in the crystal and SAXS samples
For B1, the binding result in the data set “crystal structure” is recorded as “binds”.

The values are drawn from PMC2846751 (Biochemistry, 2010).
